{"source": "patent US9458427B2", "about": "“IFNγR2 compositions and methods of inhibiting neuronal cell death” (Case Western Reserve University, priority 2009, dated 2016)", "molecules": {"B1": {"name": "IFNγR2wild type: interferon gamma receptor beta chain, full length, expressed from pEGFP-C2 plasmid as EGFP fusion (protein)", "chain": "APPDPLSQLPAPQHPKIRLYNAEQVLSWEPVALSNSTRPVVYQVQFKYTDSKWFTADIMSIGVNCTQITATECDFTAASPSAGFPMDFNVTLRLRAELGALHSAWVTMPWFQHYRNVTVGPPENIEVTPGEGSLIIRFSSPFDIADTSTAFFCYYVHYWEKGGIQQVKGPFRSNSISLDNLKPSRVYCLQVQAQLLWNKSNIFRVGHLSNISCYETMADASTELQQVILISVGTFSLLSVLAGACFFLVLKYRGLIKYWFHTPPSIPLQIEEYLKDPTQPILEALDKDSSPKDDVWDSVSIISFPEKEQEDVLQTL", "modifications": "left off: large carriers", "notes": "interferon gamma receptor beta chain, full length, expressed from pEGFP-C2 plasmid as EGFP fusion"}}, "key": {"human Bak": {"target": "T1, human Bak (Homo sapiens, UniProt Q16611)", "T1 construct": "expressed in transfected cells; host or cells: HEK293", "T1 sequence (Q16611 1-211)": "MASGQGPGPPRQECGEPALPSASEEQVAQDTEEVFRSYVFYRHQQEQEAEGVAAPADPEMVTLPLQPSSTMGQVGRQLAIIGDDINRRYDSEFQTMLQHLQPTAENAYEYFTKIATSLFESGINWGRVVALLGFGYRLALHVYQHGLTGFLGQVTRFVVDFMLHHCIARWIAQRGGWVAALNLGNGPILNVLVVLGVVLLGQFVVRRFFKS", "test": "Apoptosis induced by Bak overexpression in HEK293 cells", "format": "cell-based", "details": "24 h after transfection", "method": "(§1) Cells were cultured overnight in DMEM supplemented with 10% FBS. The transfections were performed using […]® (Qiagen, Valencia, Calif.) in accordance with the manufacturer's instructions. Transfection efficiency was analyzed by the expression of the EGFP-tagged proteins.\n(§2) Apoptosis was induced by transfecting the cells with pcDNA3-human Bax, or pcDNA3-human Bak, or pcDNA3-human Bim EL, or by treatment with etoposide (10 μM) or staurosporine (100 nM). To determine the induction of apoptosis by different apoptotic stresses, cells were stained with Hoechst 33258 dye, and the numbers of cells with apoptotic nuclei were counted using fluorescence microscopy. Three hundred cells were analyzed in triplicate samples. […] Caspase activity were measured by using a fluorogenic caspase 3 substrate II (Calbiochem), IFNγR2 constructs were cloned in pEGFP-C2 (IFNγR2wild type, IFNγR21-295 and IFNγR2296-337) vector.\n(§3) For Bax, Bak or Bim EL overexpression, cells were transfected with either 1 μg pcDNA3-human Bax, 1 μg pcDNA3-human Bak, or 1 μg pcDNA3 human Bim EL, and 4 μg of pEGFP plasmid encoding IFNγR2, and the apoptosis or caspase activity was determined 24 h after the transfection."}, "Bax [1]": {"target": "T2, Bax (Homo sapiens, UniProt Q07812)", "T2 sequence (Q07812 whole entry)": "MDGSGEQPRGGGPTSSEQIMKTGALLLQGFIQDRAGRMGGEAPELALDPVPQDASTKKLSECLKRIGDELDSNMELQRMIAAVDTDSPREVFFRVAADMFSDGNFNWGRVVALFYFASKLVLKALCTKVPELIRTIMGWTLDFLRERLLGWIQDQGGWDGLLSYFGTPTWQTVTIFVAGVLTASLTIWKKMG", "test": "Apoptosis induced by Bax overexpression in HEK293 cells (Hoechst nuclear staining)", "format": "cell-based", "parameters": "expressed in transfected cells; host or cells: HEK293", "details": "HEK293 cells co-transfected with pcDNA3-h Bax and pEGFP-C2-IFNγR2 construct, 24 h after transfection", "method": "as §1, §2, §3"}, "Caspase 3": {"test_system": "Caspase 3", "test": "Etoposide-induced Caspase 3 activation in IFNγR2 null cells", "format": "cell-based, human", "details": "10 μM etoposide for 24 h, plasmid-mediated expression", "method": "as §2"}, "Bax [2]": {"target": "T2, Bax", "test": "Staurosporine-induced Bax activation in HeLa cells (6A7 antibody immunostaining)", "format": "cell-based", "parameters": "endogenous in cells; host or cells: HeLa", "details": "staurosporine 100 nM, 3 h", "method": "HeLa cells were transiently transfected with pEGFP-C2-IFNγR2 (wild type 1-295, or 296-337) using […]® (Qiagen, Valencia, Calif.) in accordance with the manufacturer's instructions. Four micograms of the plasmid were used to transfect cells cultured in 6-cm diameter dishes. After 24 h of transfection, the cells were treated with staurosporine (100 nM) for 3 h. Then, the cells were washed with phosphate buffer pH 7.4 (PBS), fixed using paraformaldehyde (1%), permeabilized with Triton X-100 (0.02%), blocked with goat serum, and the activation of Bax was analyzed by immunocytochemistry using monoclonal Bax 6A7 antibody (BDPharmingen) and ALEXA FLUOR® 568-labeled anti-mouse IgG secondary antibody (Invitrogen)."}, "[3]": {"test_system": "HT1080 (IFNγR2 null mutant and JAK2 null mutant) cells", "test": "Etoposide-induced apoptosis in HT1080-derived IFNγR2 null and Jak2 null cells (Hoechst nuclear staining)", "format": "cell-based, human", "details": "cells lacking IFNγR2 and Jak2, 10 μM etoposide for 24 h", "method": "HT1080 (wild type, IFNγR2 null mutant and JAK2 null mutant) cells were cultured in Dulbecco's Modified Eagle's Medium (DMEM) supplemented with 10% fetal bovine serum (FBS). HeLa, Human Embryonic Kidney (HEK) 293 and HEK293T cells were purchased from ATCC, and cultured in DMEM supplemented with 10% FBS. LNCap and PC3 cells were purchased from ATCC and cultured in DMEM F12 medium supplemented with 10% FBS. RWPE1 and RWPE2 were purchased from ATCC and cultured in keratinocytes-SFM plus supplements medium (Gibco). Primary mammary epithelial (4A100) cultures were derived from organoids isolated from discarded mammary tissue acquired from patients undergoing reduction mammoplasty surgery. Anonymized specimens were acquired from patients who had given written consent, through the Tissue Procurement and Histology Core Facility of the Case Comprehensive Cancer Center (Case), under a Case CCC IRB approved protocol. Primary epithelial cultures were grown in M87A+X medium. Human HME1 cells (Clontech) were grown in medium 171 with mammary epithelial growth supplement (Cascade Biologics) and penicillin-streptomycin.42 Human breast cancer cell line MDA-MD468 was cultured in RPMI, 5% FBS, supplemented with L-glutamine, penicillin-streptomycin and fungizone (Gibco). […]\nCells were cultured overnight in DMEM supplemented with 10% FBS. […] Transfection efficiency was analyzed by the expression of the EGFP-tagged proteins.\nas §2"}, "human Bim EL": {"test_system": "human Bim EL", "test": "Apoptosis induced by Bim overexpression in HEK293T cells", "format": "cell-based", "details": "24 h after transfection", "method": "as §1, §2, §3"}}}
{"molecule": "B1", "values": [{"measurement": "Rescue from apoptosis induced by Bak overexpression", "setting": "human Bak", "value": "could not rescue cells from apoptosis induced by Bak overexpression"}, {"measurement": "Inhibition of apoptosis induced by Bax overexpression", "setting": "Bax [1]", "value": "able to inhibit apoptosis induced by Bax overexpression"}, {"measurement": "Inhibition of etoposide-induced Caspase 3 activation", "setting": "Caspase 3", "value": "inhibited etoposide-induced Caspase 3 activation"}, {"measurement": "Inhibition of STS-induced Bax activation (6A7 Ab-positive cells in GFP-positive cells)", "setting": "Bax [2]", "value": "inhibited STS-induced Bax activation"}, {"measurement": "Inhibition of etoposide-induced apoptosis", "setting": "[3]", "value": "able to inhibit etoposide-induced apoptosis"}, {"measurement": "Inhibition of apoptosis induced by Bim overexpression", "setting": "human Bim EL", "value": "able to inhibit apoptosis induced by Bim overexpression"}]}
